Here are results for 2 substances from IntAct's records for PubMed 26524528.

Experiment [1] deals with lmnb1_human LMNB1 (UniProt P20700).
Experiment [2] has the same target. This is another data set of the same source.
Experiment [3] has the same target. The source holds these as a separate data set.

With “Microtubule-associated protein 1 light chain 3 beta (Homo sapiens) (from UniProt Q9GZQ8) R10A;R11A”, the “effect of a mutation on the interaction” value with lmnb1_human LMNB1 [1] is given as “disrupting interaction strength”.
With “Microtubule-associated protein 1 light chain 3 beta (Homo sapiens) (from UniProt Q9GZQ8) G120A”, the figures for the “effect of a mutation on the interaction” value in the experiment with lmnb1_human LMNB1 [2] and in the experiment with lmnb1_human LMNB1 [3] were “decreasing interaction strength” and “disrupting interaction strength”, respectively.
